The target in test [1] is T1, human soluble αvβ5 protein (extracellular domains of human αv and β5 integrin subunits) (human, UniProt P06756 31-992; P18084 24-719).
T1 construct: also called biotin-αvβ5; hsαvβ5
The test can be described thus: ELISA, biotin-αvβ5 on streptavidin plate, unpurified antibody. How it is done:
Solid-Phase αvβ5 Binding Assay (ELISA): A 96-well microtiter plate was precoated with streptavidin (Thermo Scientific Reacti-Bind StreptAvidin Coated High Binding Capacity plate) was used. Biotinylated soluble αvβ5 protein (2 μg/mL) in TBS with 1% BSA was added to the wells, and the plate was incubated for 1 hr at 25° C. The plate was washed with wash buffer (0.05% Tween-20 in PBS), and purified humanized ALULA antibody in TBS containing 1% BSA, 1 mM CaCl2, and 1 mM MgCl2 were added (50 μl/well). The plate was incubated for 1 hr at 25° C., washed, and then incubated for 1 hr with 50 μl/well of […] goat anti-human secondary antibody. Bound antibody was detected using 3,3′,5,5′-tetramethylbenzidine (TMB). Binding was indicated by the absorbency measured at 450 nm.
(§1) Screening of all combinations of heavy chain versions VH0, VH1, VH2, VH3, VH4, or VH5, with light chains VL0, VL1, VL2, or VL3 was carried out using unpurified proteins in conditioned cell media. The binding of each construct to biotin-conjugated human αvβ5 protein was determined using a solid-phase binding assay (ELISA) and by FACS, and the ability of each construct to block ligand binding was determined using a vitronectin cell adhesion assay (Table 1).
(ELISA stands for enzyme-linked immunosorbent assay.)

Test [2] has as its target T2, human αvβ5 expressed on BaF3 cells (stably transfected with human αv and β5 subunits) (human, UniProt P06756 31-1048; P18084 24-799). The test can be described thus: cell-based or functional assay.
The target in test [3] is T2, human αvβ5 expressed on BaF3 cells …. In words: FACS on αvβ5-BaF3 cells, unpurified antibody. The method, then: FACS Binding Assay: Cells were washed one time in PBS, and then resuspended in FACS buffer (1×PBS, 1% BSA, 1 mM CaCl₂, and 1 mM MgCl₂). 1×10⁶ cells were then incubated on ice for 1 hr in FACS buffer containing the test antibody in a total volume of 50 μl. After incubation, the cells were washed two times with ice cold FACS buffer, resuspended in 50 μl of FACS buffer containing 3 μg/ml goat anti-mouse IgG AlexaFluor488 (Jackson ImmunoResearch), and incubated on ice for 30 min. The cells were then washed twice with ice cold FACS buffer and fixed in 1% PFA overnight. Cell aggregates were removed by filtering through 40 μm filter plates (Millipore) and binding of the labeled secondary antibody was monitored by flow cytometry using a FACS Calibur (BD Biosciences).
as §1

The source of these data is patent US20170362324A1 (Biogen, published 2017).

What is called EC50 is the midpoint of the concentration-response curve.

T2 sequence (P06756 31-1048 limits assumed, chain 1 of 2): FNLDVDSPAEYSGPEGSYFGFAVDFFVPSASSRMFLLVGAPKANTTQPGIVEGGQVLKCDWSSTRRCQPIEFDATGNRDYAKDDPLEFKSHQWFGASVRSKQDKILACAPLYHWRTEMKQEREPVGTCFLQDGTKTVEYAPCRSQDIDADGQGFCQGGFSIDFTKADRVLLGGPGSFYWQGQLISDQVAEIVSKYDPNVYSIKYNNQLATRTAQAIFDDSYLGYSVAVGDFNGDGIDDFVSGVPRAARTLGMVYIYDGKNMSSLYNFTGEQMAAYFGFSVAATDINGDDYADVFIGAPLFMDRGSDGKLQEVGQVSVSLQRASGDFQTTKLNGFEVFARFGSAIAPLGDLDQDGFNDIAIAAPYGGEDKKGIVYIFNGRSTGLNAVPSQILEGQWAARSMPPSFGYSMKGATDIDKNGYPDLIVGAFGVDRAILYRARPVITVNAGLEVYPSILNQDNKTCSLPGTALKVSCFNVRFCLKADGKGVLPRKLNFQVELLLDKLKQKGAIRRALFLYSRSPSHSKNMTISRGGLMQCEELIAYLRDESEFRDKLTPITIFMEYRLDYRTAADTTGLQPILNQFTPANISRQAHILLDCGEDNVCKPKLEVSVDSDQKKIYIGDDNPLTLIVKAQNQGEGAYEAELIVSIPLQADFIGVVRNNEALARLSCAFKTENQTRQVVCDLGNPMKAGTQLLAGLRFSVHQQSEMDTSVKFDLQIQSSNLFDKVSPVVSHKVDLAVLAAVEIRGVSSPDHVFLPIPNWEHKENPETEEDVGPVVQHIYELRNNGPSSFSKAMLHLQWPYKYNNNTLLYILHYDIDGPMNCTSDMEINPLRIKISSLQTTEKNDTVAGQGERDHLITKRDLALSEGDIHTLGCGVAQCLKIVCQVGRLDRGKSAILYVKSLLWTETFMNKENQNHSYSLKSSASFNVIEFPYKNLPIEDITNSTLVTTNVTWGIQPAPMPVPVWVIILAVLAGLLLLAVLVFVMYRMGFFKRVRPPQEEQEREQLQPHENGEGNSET
T2 sequence (P18084 24-799 limits assumed, chain 2 of 2): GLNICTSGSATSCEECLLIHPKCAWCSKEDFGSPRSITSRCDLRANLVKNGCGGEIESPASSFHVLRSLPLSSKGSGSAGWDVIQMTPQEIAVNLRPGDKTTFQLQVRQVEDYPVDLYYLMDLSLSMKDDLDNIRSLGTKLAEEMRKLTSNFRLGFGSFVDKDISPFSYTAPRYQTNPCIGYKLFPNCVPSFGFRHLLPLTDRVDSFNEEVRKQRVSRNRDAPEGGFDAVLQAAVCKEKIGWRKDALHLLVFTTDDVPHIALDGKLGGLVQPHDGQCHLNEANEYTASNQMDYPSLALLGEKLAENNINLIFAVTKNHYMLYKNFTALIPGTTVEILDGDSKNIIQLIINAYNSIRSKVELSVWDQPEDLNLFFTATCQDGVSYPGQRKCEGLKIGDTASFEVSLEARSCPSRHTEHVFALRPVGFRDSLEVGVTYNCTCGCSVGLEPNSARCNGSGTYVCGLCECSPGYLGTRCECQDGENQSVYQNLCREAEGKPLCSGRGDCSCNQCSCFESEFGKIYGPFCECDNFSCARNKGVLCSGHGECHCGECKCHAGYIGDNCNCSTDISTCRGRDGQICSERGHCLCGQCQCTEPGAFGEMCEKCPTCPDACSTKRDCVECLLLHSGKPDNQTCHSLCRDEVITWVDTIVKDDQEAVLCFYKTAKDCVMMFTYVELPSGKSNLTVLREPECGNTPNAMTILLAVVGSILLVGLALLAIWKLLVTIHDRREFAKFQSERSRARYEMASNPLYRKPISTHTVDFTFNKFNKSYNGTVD
T1 sequence (P06756 31-992 limits assumed, chain 1 of 2): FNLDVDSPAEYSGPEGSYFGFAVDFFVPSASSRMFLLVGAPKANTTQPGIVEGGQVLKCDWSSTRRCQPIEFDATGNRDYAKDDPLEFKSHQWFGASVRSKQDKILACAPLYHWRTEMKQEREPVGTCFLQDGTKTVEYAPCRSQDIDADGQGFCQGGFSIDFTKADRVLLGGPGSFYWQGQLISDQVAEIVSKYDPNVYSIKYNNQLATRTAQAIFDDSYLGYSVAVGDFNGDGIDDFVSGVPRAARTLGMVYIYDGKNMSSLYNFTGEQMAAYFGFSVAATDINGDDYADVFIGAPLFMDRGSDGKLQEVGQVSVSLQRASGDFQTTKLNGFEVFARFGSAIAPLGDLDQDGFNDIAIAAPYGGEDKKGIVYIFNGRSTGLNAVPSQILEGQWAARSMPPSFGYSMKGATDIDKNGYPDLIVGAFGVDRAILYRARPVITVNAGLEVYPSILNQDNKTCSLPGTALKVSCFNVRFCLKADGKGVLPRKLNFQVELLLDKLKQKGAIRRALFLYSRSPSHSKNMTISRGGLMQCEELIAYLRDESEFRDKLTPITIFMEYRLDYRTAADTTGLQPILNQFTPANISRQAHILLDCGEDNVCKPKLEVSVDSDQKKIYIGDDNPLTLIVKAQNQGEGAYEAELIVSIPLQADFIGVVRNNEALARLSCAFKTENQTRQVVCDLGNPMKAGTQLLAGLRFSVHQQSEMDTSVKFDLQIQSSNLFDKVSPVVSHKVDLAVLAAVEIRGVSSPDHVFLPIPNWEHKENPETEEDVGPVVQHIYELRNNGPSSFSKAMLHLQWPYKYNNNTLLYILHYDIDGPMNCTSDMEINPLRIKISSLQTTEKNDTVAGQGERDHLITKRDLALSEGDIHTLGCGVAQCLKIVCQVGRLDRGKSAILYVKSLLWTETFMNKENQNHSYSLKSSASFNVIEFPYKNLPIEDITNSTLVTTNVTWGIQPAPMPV
T1 sequence (P18084 24-719 limits assumed, chain 2 of 2): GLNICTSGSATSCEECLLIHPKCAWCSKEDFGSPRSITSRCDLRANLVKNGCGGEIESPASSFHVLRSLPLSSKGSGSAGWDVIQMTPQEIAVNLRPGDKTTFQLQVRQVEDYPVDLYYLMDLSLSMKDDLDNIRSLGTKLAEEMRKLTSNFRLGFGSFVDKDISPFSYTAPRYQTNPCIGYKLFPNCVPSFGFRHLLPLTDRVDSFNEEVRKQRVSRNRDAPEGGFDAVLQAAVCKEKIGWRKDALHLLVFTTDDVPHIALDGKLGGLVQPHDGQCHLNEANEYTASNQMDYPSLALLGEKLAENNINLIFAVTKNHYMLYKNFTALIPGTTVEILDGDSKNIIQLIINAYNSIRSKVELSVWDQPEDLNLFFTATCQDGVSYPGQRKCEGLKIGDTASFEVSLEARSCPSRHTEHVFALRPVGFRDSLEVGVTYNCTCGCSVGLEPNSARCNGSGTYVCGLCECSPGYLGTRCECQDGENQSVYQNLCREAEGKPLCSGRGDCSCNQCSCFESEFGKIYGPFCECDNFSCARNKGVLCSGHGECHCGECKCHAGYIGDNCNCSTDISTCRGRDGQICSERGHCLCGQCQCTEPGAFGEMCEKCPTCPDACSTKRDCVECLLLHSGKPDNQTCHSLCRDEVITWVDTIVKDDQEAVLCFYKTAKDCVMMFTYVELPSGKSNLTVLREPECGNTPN

B1: VH1/VL0 Agly-hIgG1(T299A) (antibody, V domains shown)
VH: EVQVVESGGGLVKPGGSLRLSCAASGYTFTSYWMHWVRQAPGKGLEWVGAIYPGNSDTSYNQKFKGRFTISADTSKNTLYLQMNSLKTEDTAVYYCTTTTYGYDWFAYWGQGTLVTVSS
VL: DIQMTQSPSSVSASVGDRVTITCKSSQSVLYSSNQKNYLAWYQQKPGKAPKLLIYWASTRESGVPSRFSGSGSGTDFTLTISSLQPEDFATYYCHQYLSSLTFGQGTKVEIK
notes: also called H1/L0
As for B1, the EC50 in test [1] was determined as 1 nM; in test [3] it was 3680 nM. Besides, in test [2], the “VN adhesion inhibition, αvβ5-BaF3 (IC50, nM)” value (shortened to “VN adhesion inhibition”) was determined as 3300 nM.

B2: VH1/VL3 Agly-hIgG1(T299A) (antibody, V domains shown)
VH: EVQVVESGGGLVKPGGSLRLSCAASGYTFTSYWMHWVRQAPGKGLEWVGAIYPGNSDTSYNQKFKGRFTISADTSKNTLYLQMNSLKTEDTAVYYCTTTTYGYDWFAYWGQGTLVTVSS
VL: DIQMTQSPSSLTVSVGDRVTMSCKSSQSVLYSSNQKNYLAWYQQKPGKSPKLLIYWASTRESGVPDRFTGSGSGTDFTLTISSVQPEDFATYYCHQYLSSLTFGAGTKLEIK
notes: also called H1/L3
Regarding B2, the EC50 in test [1] worked out at 2.9 nM; in test [3], 2930 nM. Besides, the “VN adhesion inhibition” value in test [2] was found to be 1840 nM.

B3: VH0/VL3 Agly-hIgG1(T299A) (antibody, V domains shown)
VH: EVQLVESGGGLVKPGGSLRLSCAASGYTFTSYWMHWVRQAPGKGLEWVGAIYPGNSDTSYNQKFKGRFTISRDDSKNTLYLQMNSLKTEDTAVYYCTTTTYGYDWFAYWGQGTLVTVSS
VL: DIQMTQSPSSLTVSVGDRVTMSCKSSQSVLYSSNQKNYLAWYQQKPGKSPKLLIYWASTRESGVPDRFTGSGSGTDFTLTISSVQPEDFATYYCHQYLSSLTFGAGTKLEIK
notes: also called H0/L3
With B3, the EC50 was 0.9 nM in test [1] and 1270 nM in test [3]. Moreover, in test [2], the “VN adhesion inhibition” value worked out at 494 nM.

B4: VH0/VL2 Agly-hIgG1(T299A) (antibody, V domains shown)
VH: EVQLVESGGGLVKPGGSLRLSCAASGYTFTSYWMHWVRQAPGKGLEWVGAIYPGNSDTSYNQKFKGRFTISRDDSKNTLYLQMNSLKTEDTAVYYCTTTTYGYDWFAYWGQGTLVTVSS
VL: NIQMTQSPSSLSASVGDRVTMSCKSSQSVLYSSNQKNYLAWYQQKPGKSPKLLIYWASTRESGVPDRFTGSGSGTDFTLTISSLQPEDFATYYCHQYLSSLTFGQGTKLEIK
notes: also called H0/L2
As for B4, the values for the EC50 in test [1] and in test [3] were 1 nM and 855 nM, respectively. In test [2], the “VN adhesion inhibition” value stood at 1970 nM.

B5: VH5/VL3 Agly-hIgG1(T299A) (antibody, V domains shown)
VH: EVQVQQSGGGLVKPGGSLRLSCKASGYTFTSYWMHWVKQAPGKGLEWVGAIYPGNSDTSYNQKFKGKATLSAVTSPNTAYLQMNSLKTEDTAVYYCTTTTYGYDWFAYWGQGTLVTVSS
VL: DIQMTQSPSSLTVSVGDRVTMSCKSSQSVLYSSNQKNYLAWYQQKPGKSPKLLIYWASTRESGVPDRFTGSGSGTDFTLTISSVQPEDFATYYCHQYLSSLTFGAGTKLEIK
notes: also called H5/L3
As for B5, the EC50 in test [1] turned out to be 1.4 nM; in test [3], 422 nM. Also, in test [2], the “VN adhesion inhibition” value is 72.2 nM.

B6: VH2/VL1 Agly-hIgG1(T299A) (antibody, V domains shown)
VH: EVQVVQSGGGLVKPGESLRLSCAASGYTFTSYWMHWVKQAPGKGLEWVGAIYPGNSDTSYNQKFKGKFTISADTSSNTAYLQMNSLKTEDTAVYYCTTTTYGYDWFAYWGQGTLVTVSS
VL: DIQMTQSPSSLSASVGDRVTMTCKSSQSVLYSSNQKNYLAWYQQKPGKAPKLLIYWASTRESGVPDRFSGSGSGTDFTLTISSLQPEDFATYYCHQYLSSLTFGQGTKLEIK
notes: also called H2/L1
Turning to B6, the EC50 was 1 nM in test [1] and 405 nM in test [3]. For the same molecule, the “VN adhesion inhibition” value in test [2] came to 318 nM.

B7: VH3/VL3 Agly-hIgG1(T299A) (antibody, V domains shown)
VH: EVQVVESGGGLVKPGGSLRLSCKASGYTFTSYWMHWVKQAPGKGLEWVGAIYPGNSDTSYNQKFKGKFTLSAVTSSNTAYLQMNSLKTEDTAVYYCTTTTYGYDWFAYWGQGTLVTVSS
VL: DIQMTQSPSSLTVSVGDRVTMSCKSSQSVLYSSNQKNYLAWYQQKPGKSPKLLIYWASTRESGVPDRFTGSGSGTDFTLTISSVQPEDFATYYCHQYLSSLTFGAGTKLEIK
notes: also called H3/L3
As to B7, the results for the EC50 in test [1] and in test [3] were 1.2 nM and 6290 nM, respectively. In test [2], the “VN adhesion inhibition” value came out at 227 nM.

B8: VH1/VL2 Agly-hIgG1(T299A) (antibody, V domains shown)
VH: EVQVVESGGGLVKPGGSLRLSCAASGYTFTSYWMHWVRQAPGKGLEWVGAIYPGNSDTSYNQKFKGRFTISADTSKNTLYLQMNSLKTEDTAVYYCTTTTYGYDWFAYWGQGTLVTVSS
VL: NIQMTQSPSSLSASVGDRVTMSCKSSQSVLYSSNQKNYLAWYQQKPGKSPKLLIYWASTRESGVPDRFTGSGSGTDFTLTISSLQPEDFATYYCHQYLSSLTFGQGTKLEIK
notes: also called H1/L2
In the case of B8, the EC50 in test [1] was 2.3 nM; in test [3], 5370 nM. For the same molecule, the “VN adhesion inhibition” value in test [2] was 1730 nM.

B9: VH1/VL1 Agly-hIgG1(T299A) (antibody, V domains shown)
VH: EVQVVESGGGLVKPGGSLRLSCAASGYTFTSYWMHWVRQAPGKGLEWVGAIYPGNSDTSYNQKFKGRFTISADTSKNTLYLQMNSLKTEDTAVYYCTTTTYGYDWFAYWGQGTLVTVSS
VL: DIQMTQSPSSLSASVGDRVTMTCKSSQSVLYSSNQKNYLAWYQQKPGKAPKLLIYWASTRESGVPDRFSGSGSGTDFTLTISSLQPEDFATYYCHQYLSSLTFGQGTKLEIK
notes: also called H1/L1
Consider B9, for which the figures for the EC50 in test [1] and in test [3] were 1.9 nM and 3360 nM, respectively. For the same molecule, in test [2], the “VN adhesion inhibition” value amounted to 2520 nM.

B10: VH4/VL3 Agly-hIgG1(T299A) (antibody, V domains shown)
VH: EVQVVQSGGGLVKPGESLRLSCKASGYTFTSYWMHWVKQAPGKGLEWVGAIYPGNSDTSYNQKFKGKFTISADTSPNTAYLQMNSLKTEDTAVYYCTTTTYGYDWFAYWGQGTLVTVSS
VL: DIQMTQSPSSLTVSVGDRVTMSCKSSQSVLYSSNQKNYLAWYQQKPGKSPKLLIYWASTRESGVPDRFTGSGSGTDFTLTISSVQPEDFATYYCHQYLSSLTFGAGTKLEIK
notes: also called H4/L3
In the case of B10, the results for the EC50 in test [1] and in test [3] were 1.7 nM and 162 nM, respectively. In addition, in test [2], the “VN adhesion inhibition” value was determined as 64.8 nM.

B11: VH3/VL1 Agly-hIgG1(T299A) (antibody, V domains shown)
VH: EVQVVESGGGLVKPGGSLRLSCKASGYTFTSYWMHWVKQAPGKGLEWVGAIYPGNSDTSYNQKFKGKFTLSAVTSSNTAYLQMNSLKTEDTAVYYCTTTTYGYDWFAYWGQGTLVTVSS
VL: DIQMTQSPSSLSASVGDRVTMTCKSSQSVLYSSNQKNYLAWYQQKPGKAPKLLIYWASTRESGVPDRFSGSGSGTDFTLTISSLQPEDFATYYCHQYLSSLTFGQGTKLEIK
notes: also called H3/L1
For B11, the EC50 in test [1] turned out to be 1.2 nM; in test [3] it was 1930 nM. For the same molecule, the “VN adhesion inhibition” value in test [2] worked out at 360 nM.

B12: VH2/VL3 Agly-hIgG1(T299A) (antibody, V domains shown)
VH: EVQVVQSGGGLVKPGESLRLSCAASGYTFTSYWMHWVKQAPGKGLEWVGAIYPGNSDTSYNQKFKGKFTISADTSSNTAYLQMNSLKTEDTAVYYCTTTTYGYDWFAYWGQGTLVTVSS
VL: DIQMTQSPSSLTVSVGDRVTMSCKSSQSVLYSSNQKNYLAWYQQKPGKSPKLLIYWASTRESGVPDRFTGSGSGTDFTLTISSVQPEDFATYYCHQYLSSLTFGAGTKLEIK
notes: also called H2/L3
On to B12, for which the results for the concentration for a half-maximal effect (EC50) in test [1] and in test [3] were 1 nM and 990 nM, respectively. Moreover, the “VN adhesion inhibition” value in test [2] was 303 nM.
